Reference: PMC2652392, “The Structural Basis of Gas-Responsive Transcription by the Human Nuclear Hormone Receptor REV-ERBβ” (PLoS Biology, 2009)
No end group written: not given here.

Key:
[1] = target: T1, REV-ERBα ligand-binding domain (residues 274–614 with an internal deletion of residues 324–422) (human, UniProt P20393 274-614, internal deletion of residues 324–422); assay: FP; no heme, control
T1 sequence: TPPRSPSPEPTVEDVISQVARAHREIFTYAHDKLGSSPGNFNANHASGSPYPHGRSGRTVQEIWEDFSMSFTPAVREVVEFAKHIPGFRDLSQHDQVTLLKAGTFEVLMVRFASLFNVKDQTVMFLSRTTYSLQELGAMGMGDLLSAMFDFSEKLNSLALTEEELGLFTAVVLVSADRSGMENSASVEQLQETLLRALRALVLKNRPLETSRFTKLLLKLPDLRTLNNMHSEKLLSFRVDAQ

[2] = target: T2, REV-ERBβ ligand-binding domain (human, UniProt Q14995 212-579); assay: FP; no heme, control
T2 chain: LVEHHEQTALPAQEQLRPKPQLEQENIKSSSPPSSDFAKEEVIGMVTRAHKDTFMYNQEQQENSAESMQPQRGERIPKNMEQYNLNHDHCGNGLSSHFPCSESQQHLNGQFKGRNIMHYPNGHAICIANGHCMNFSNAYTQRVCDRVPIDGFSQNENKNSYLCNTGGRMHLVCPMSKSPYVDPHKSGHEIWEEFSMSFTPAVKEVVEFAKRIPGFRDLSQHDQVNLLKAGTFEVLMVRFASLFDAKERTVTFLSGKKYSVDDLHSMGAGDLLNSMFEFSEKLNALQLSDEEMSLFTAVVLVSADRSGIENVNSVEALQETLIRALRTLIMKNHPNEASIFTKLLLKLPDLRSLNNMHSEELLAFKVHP

[3] = target: T1, REV-ERBα ligand-binding domain …; assay: FP; heme-bound, control
[4] = target: T2, REV-ERBβ ligand-binding domain; assay: FP; heme-bound, control
[5] = target: T1, REV-ERBα ligand-binding domain …; assay: FP; heme-bound, + SNAP (NO donor)
[6] = target: T2, REV-ERBβ ligand-binding domain; assay: FP; heme-bound, + SNAP (NO donor)
[7] = target: T1, REV-ERBα ligand-binding domain …; assay: FP; no heme, + SNAP (NO donor)
[8] = target: T2, REV-ERBβ ligand-binding domain; assay: FP; no heme, + SNAP (NO donor)
[9] = target: T3, REV-ERBα ligand-binding domain (residues 274–614 with an internal deletion of residues 324–422) (human, UniProt P20393 274-614, internal deletion of residues 324–422); assay: fluorescence polarisation; 110 nM N-terminally fluorescein-labelled NCOR peptide with a dilution series of LBD; 100 mM Tris pH 8.2, 150 mM NaCl; apo or heme-bound LBD, with or without the NO donor SNAP (1,200 μM); 384-well plates; settings: both partners purified
T3 construct: REV-ERBα, human, GenBank CAB53540, residues 274–614 with an internal deletion of residues 324–422; heme is a non-covalent ligand; Modified pET28a vector; also called REV-ERBα LBD; source: E. coli BL21-Gold(DE3) pLysS, with or without hemin in the medium, purified (Ni-NTA)
T3 sequence (looked up): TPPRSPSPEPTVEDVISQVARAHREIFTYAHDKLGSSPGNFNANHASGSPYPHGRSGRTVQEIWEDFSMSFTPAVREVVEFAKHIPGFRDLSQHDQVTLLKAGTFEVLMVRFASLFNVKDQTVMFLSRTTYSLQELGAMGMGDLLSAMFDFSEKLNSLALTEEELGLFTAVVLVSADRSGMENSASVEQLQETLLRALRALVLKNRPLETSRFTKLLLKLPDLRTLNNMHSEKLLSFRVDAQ

Kd [1]: 4.1 µM
Kd [2]: 16.8 µM
Kd [3]: 51.1 µM
Kd [4]: 193 µM
Kd [5]: 2.9 µM
Kd [6]: 99.7 µM
Kd [7]: 3.7 µM
Kd [8]: 20.4 µM
binding result [9]: binds
B1: NCOR interaction domain I (IDI) peptide (peptide)
peptide: fluorescein-DPASNLGLEDIIRKALMGSF
notes: also called NCOR peptide; Nuclear Receptor Co-repressor peptide
